Tests used:
hMC1-r [1] = molecular target: T1, hMC1-r (Homo sapiens, UniProt Q01726); test: Scatchard Analysis on MC1-r transfected COS7 cells with AP-Ag; assay type: binding; settings: culture supernatant containing up to 30 nM AP-Ag, estimated
T1 construct: expressed in transfected cells; host or cells: COS-7 cells, transient (DEAE-Dextran)
Description: (§1) COS-7 cells were transfected with hMC1-r or hMC4-r by the DEAE-Dextran method. A plasmid containing the Adenovirus VA1 and VA2 RNA genes was used to co-transfect the COS cells to enhance transient protein expression by increasing translational initiation. The MC4-r and the VA½ cDNA plasmids were used at a ratio of 10 to 1. Control plates received the VA½ plasmid alone. 48 hours post-transfection, the cells were rinsed and culture supernatant containing 15 nm of AP-Ag was added. AP-Ag is a truncated agouti protein, containing the cysteine-rich domain tagged with the alkaline phosphatase at its N-terminal. Binding of AP-Ag to transfected cells proceeded at room temperature for 90 minutes with gentle rocking. The cells were then washed 7 times before fixing and color development using NBT/BCIP substrate.
To assess the affinity of the agouti protein for the MC1-R receptor, a Scatchard Analysis was performed on MC1-r transfected COS7 cells using culture supernatant containing up to 30 nM AP-Ag. The Kd has been estimated at 20-30 nM range.

hMC1-r [2] = molecular target: T1, hMC1-r; test: Direct binding of AP-Ag to hMC1-r transfected COS-7 cells (AP staining); settings: 15 nm AP-Ag, room temperature, 90 minutes; transfection efficiency typically 12-16%
Description: as §1
(§2) N-terminal truncated agouti protein, containing only the cysteine-rich C-terminal domain, retains the antagonizing activity of the full-length agouti. […]
(§3) The transfection efficiency, as monitored by β-galactosidase reporter plasmid, typically was 12-16%. 10-13% of the MC1-r transfected and 3-4% of the MC4-r transfected COS7 cells bound the agouti protein as determined by AP staining. […]

hMC4-r = molecular target: T2, hMC4-r (Homo sapiens, UniProt P32245); test: Direct binding of AP-Ag to hMC4-r transfected COS-7 cells (AP staining); settings: 15 nm AP-Ag, room temperature, 90 minutes; transfection efficiency typically 12-16%
T2 construct: expressed in transfected cells; host or cells: COS-7 cells, transient (DEAE-Dextran), co-transfected with Adenovirus VA1/VA2 RNA plasmid
Description: as §1, §2, §3

[3] = molecular target: T3, Human melanocortin receptor 4 (hMC4-r) (Homo sapiens, UniProt P32245); test: Intracellular cAMP level in 293/MC4-R stable clones with agouti protein; assay type: cell-based; settings: 5 nM agouti protein; 293/MC4-R line relative to the parental 293 cell line
T3 construct: expressed in transfected cells
Description: Human melanocortin receptor 4 (hMC4-r) cDNA, under the control of the CMV promoter, was transfected into the 293 cell line, and stable clones were selected (293/MC4-R). The stable clones were tested for reduction in intracellular cAMP levels in the presence of 5 nM agouti protein.
When 5 nM agouti protein was added to the 293/MC4-R line, an 18% reduction of intracellular cAMP level, relative to the parental 293 cell line, was observed.

T1 sequence (Q01726 whole entry): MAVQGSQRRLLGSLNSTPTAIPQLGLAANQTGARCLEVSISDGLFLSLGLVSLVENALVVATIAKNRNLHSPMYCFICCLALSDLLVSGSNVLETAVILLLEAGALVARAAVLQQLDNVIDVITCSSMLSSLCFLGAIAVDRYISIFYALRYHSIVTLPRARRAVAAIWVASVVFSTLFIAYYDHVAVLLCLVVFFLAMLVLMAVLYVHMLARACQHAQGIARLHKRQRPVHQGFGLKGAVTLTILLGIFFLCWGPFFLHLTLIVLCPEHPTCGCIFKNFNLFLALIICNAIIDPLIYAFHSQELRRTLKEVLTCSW
T3 sequence (P32245 whole entry): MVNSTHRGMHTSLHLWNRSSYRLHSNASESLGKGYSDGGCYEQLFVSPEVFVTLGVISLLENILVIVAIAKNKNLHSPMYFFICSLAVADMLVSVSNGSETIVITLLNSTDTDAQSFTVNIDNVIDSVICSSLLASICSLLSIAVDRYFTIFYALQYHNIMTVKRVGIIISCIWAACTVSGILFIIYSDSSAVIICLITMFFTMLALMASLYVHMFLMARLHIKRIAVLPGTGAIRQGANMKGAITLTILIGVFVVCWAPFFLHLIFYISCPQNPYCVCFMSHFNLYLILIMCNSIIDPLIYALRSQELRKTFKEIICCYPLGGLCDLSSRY
T2 sequence (P32245 whole entry): as above

Kd (hMC1-r [1]) [nM] | MC1-r transfected COS7 cells that bound the agouti protein as determined by AP staining (hMC1-r [2]) | MC4-r transfected COS7 cells that bound the agouti protein as determined by AP staining (hMC4-r) | reduction of intracellular cAMP level [3] [%] | Molecule
20 to 30 |  |  |  | AP-Ag: truncated agouti protein, containing the cysteine-rich domain tagged with the alkaline phosphatase at its N-terminal
 | 10-13% | 3-4% | 18 | agouti protein: gene product expressed in mice, involved in coat color and obesity when ectopically expressed; antagonizes melanocortin receptors (protein) HLALEETLGDDRSLRSNSSMNSLDFSSVSIVALNKKSKKISRKEAEKRKRSSKKKASMKKVARPPPPSPCVATRDSCKPPAPACCDPCASCQCRFFGSACTCRVLNPNC

From patent US20080009438A9, “Screening methods for compounds useful in the regulation of body weight” (Millennium Pharmaceuticals, Inc., priority 1996, published 2008)
